Data published in patent US4446316A, “Dextran derivative of fibrinolysin” (Vsesojuzny Kardiologichesky Nauchny Tsentr, priority 1980, dated 1984).
Entries after “also recorded” stand apart in the source; their conditions may differ.

Tests used:
Rats = assay: Toxicity upon intravenous injection in rats; format: in vivo; settings: i.v.
Source text: (§1) The toxicity of the fibrinolysin derivative according to the present invention was studied on white mice, rats, rabbits and dogs.
(§2) Toxicity of the fibrinolysin derivative of the invention
(§3) for animals of different species upon intravenous injection

[1] = tested on: white mice, rats, rabbits and dogs; assay: Toxicity, general findings in white mice, rats, rabbits and dogs; format: in vivo; settings: for Death of animals: single i.v. dose exceeding the therapeutic dose by 4-5 times
Source text: as §1

experimental thrombosis = assay: Duration of fibrinolytic effect and effective dose in experimental thrombosis; format: in vivo, rabbits, dogs; settings: for Minimal effective (therapeutical) dose: single intravenous jet-like infusion
Source text: (§4) The study of the specific (thrombolytic) effect of the polysaccharide fibrinolysin derivative according to the present invention has been studied on models of thromboses of a rabbit's jugular vein and a dog's femoral vein or artery. Thrombi of 1 to 2.5 cm size were formed in the above-mentioned animals which fully obliterated the cross-section of a blood vessel. The administration of the test preparation at the background of heparin was started one hour after the thrombus formation.
(§5) On the basis of an expected prolonged fibrinolytic effect of the preparation according to the present invention, a test dose of the preparation ranging from 400 to 4,000 units per kg of the bodyweight is dissolved in a physiological solution, 20-30 ml for rabbits and 50-100 ml for dogs, and injected by means of a syringe in a jet-like manner intravenously over 20 minutes, not following the instruction on the use of fibrinolysin (intravenously by the dropwise method at a rate of 10-12 drops per minute).
(§6) The dynamics of the thrombus formation and lysis was observed visually and by palpation during 6 hours of the experiment, after one, two and three days. The angiography and fluorometry were carried out prior to the beginning of the treatment and one day after the administration of the preparation.

blood coagulation = assay: Blood coagulation and bleeding during therapy of experimental thrombosis; format: in vivo, rabbit; settings: for Bleeding / Changes in the third phase of blood coagulation: during treatment
Source text: as §4, §5, §6

[2] = tested on: thromboses of a dog's femoral vein or artery; assay: Thrombolytic activity on model of thrombosis of dog's femoral vein (lysis of thrombus); format: in vivo; settings: dogs
Source text: as §4, §5, §6

thrombin time = assay: Thrombin time in dogs with experimental thrombosis; format: in vivo, dog; settings: for Thrombin time, initial parameter: before administration (baseline)
Source text: (§7) The prolonged effect of the fibrinolysin derivative according to the present invention has been studied in experiments on dogs in comparison with the effect of native fibrinolysin.
Variation of thrombin time (in seconds) in dogs with expe-
rimental thrombosis after administration of the fibrinolysin
derivative according to the present invention and native

[3] = Solubility and hygroscopicity of the preparation; format: physicochemical; settings: for Solubility in 0.9% isotonic solution of sodium chloride: 0.9% sodium chloride; for Hygroscopicity: lyophilized powder
[4] = tested on: thromboses of a rabbit's jugular vein; assay: Thrombolytic activity on model of thrombosis of rabbit's jugular vein (lysis of thrombus); format: in vivo
Source text: as §4, §5, §6

[5] = tested on: euglobulin fraction of dog's plasma; assay: Lysis duration of the euglobulin fraction of dog's plasma with experimental thrombosis; format: in vivo; settings: for Lysis duration of the euglobulin fraction, initial parameter: before administration (baseline)
Source text: as §7
Variation of lysis duration (in minutes) of the euglobulin
fraction of dog's plasma with experimental thrombosis upon
administration of the fibrinolysin derivative according to
the present invention and native fibrinolysin

Rabbits = assay: Toxicity upon intravenous injection in rabbits; format: in vivo; settings: i.v.
Source text: as §1, §2, §3

Mice = assay: Toxicity upon intravenous injection in mice; format: in vivo, white mice; settings: i.v.
Source text: as §1, §2, §3

Dogs = assay: Toxicity upon intravenous injection in dogs; format: in vivo; settings: i.v.
Source text: as §1, §2, §3

[6] = Fibrinolytic activity of the preparation; format: biochemical; settings: for Specific (fibrinolytic) activity: lyophilized preparation; for Total activity relative to the initial value: of the initial value

B1: Fibrinolysin derivative of the invention: fibrinolysin covalently bonded to dextran dialdehyde (molecular mass 20,000 to 110,000), reduced with sodium borohydride (conjugate, UniProt P00747 20-580; P00747 581-810, looked up)
Plasmin heavy chain A: EPLDDYVNTQGASLFSVTKKQLGAGSIEECAAKCEEDEEFTCRAFQYHSKEQQCVIMAENRKSSIIIRMRDVVLFEKKVYLSECKTGNGKNYRGTMSKTKNGITCQKWSSTSPHRPRFSPATHPSEGLEENYCRNPDNDPQGPWCYTTDPEKRYDYCDILECEEECMHCSGENYDGKISKTMSGLECQAWDSQSPHAHGYIPSKFPNKNLKKNYCRNPDRELRPWCFTTDPNKRWELCDIPRCTTPPPSSGPTYQCLKGTGENYRGNVAVTVSGHTCQHWSAQTPHTHNRTPENFPCKNLDENYCRNPDGKRAPWCHTTNSQVRWEYCKIPSCDSSPVSTEQLAPTAPPELTPVVQDCYHGDGQSYRGTSSTTTTGKKCQSWSSMTPHRHQKTPENYPNAGLTMNYCRNPDADKGPWCFTTDPSVRWEYCNLKKCSGTEASVVAPPPVVLLPDVETPSEEDCMFGNGKGYRGKRATTVTGTPCQDWAAQEPHRHSIFTPETNPRAGLEKNYCRNPDGDVGGPWCYTTNPRKLYDYCDVPQCAAPSFDCGKPQVEPKKCPGR
Plasmin light chain B: VVGGCVAHPHSWPWQVSLRTRFGMHFCGGTLISPEWVLTAAHCLEKSPRPSSYKVILGAHQEVNLEPHVQEIEVSRLFLEPTRKDIALLKLSSPAVITDKVIPACLPSPNYVVADRTECFITGWGETQGTFGAGLLKEAQLPVIENKVCNRYEFLNGRVQSTELCAGHLAGGTDSCQGDSGGPLVCFEKDKYILQGVTSWGLGCARPNKPGVYVRVSRFVTWIEGVMRNN
modifications: Plasmin dextran dialdehyde conjugate, borohydride reduced
notes: fibrinolysin covalently bonded to dextran dialdehyde (molecular mass 20,000 to 110,000), reduced with sodium borohydride
- LD50 (Rats): 4586 un./kg
- Toxicity test result (dead/survived, not defined) (Rats; 2000 un/kg): 0/6
- Toxicity test result (dead/survived, not defined) (Rats; 2500 un/kg): 0/6
- Toxicity test result (dead/survived, not defined) (Rats; 3750 un/kg): 2/4
- Toxicity test result (dead/survived, not defined) (Rats; 5000 un/kg): 3/3
- Toxicity test result (dead/survived, not defined) (Rats; 6250 un/kg): 6/0
- Toxicity ([1]; compared with native fibrinolysin / overall statement, listed as fibrinolysin derivative according to the present invention): low toxicity
- Effect on the vessels ([1]; in the test doses): no injuring effect on the vessels
- Macro- and microscopic changes in the inner organs ([1]; in the test doses): no macro- and microscopic changes in the inner organs
- Effect on the central nervous system and blood pressure ([1]; in therapeutical doses): no effect on the central nervous system and blood pressure
- Death of animals ([1]; listed as fibrinolysin derivative according to the present invention): does not result in death of animals
- Death of animals ([1]; listed as fibrinolysin derivative of the present invention): does not result in their death
- Normalization of changes in the blood clotting system (experimental thrombosis; after administration): on the second day
- Duration of the fibrinolytic effect (experimental thrombosis; after administration, listed as fibrinolysin derivative according to the present invention): up to two days after administration; also recorded: observed also on the second day
- Minimal effective (therapeutical) dose (experimental thrombosis): 400 units/kg
- Prolongation of the effect as compared to native fibrinolysin (experimental thrombosis; vs native fibrinolysin): 2-3 times
- Bleeding (blood coagulation): not accompanied by bleeding
- Changes in the third phase of blood coagulation (blood coagulation): no sharp changes in the third phase of blood coagulation
- Efficiency of the therapy (lysis of thrombus) ([2]; femoral vein, 600 units/kg i.v., n=3): full lysis
- Thrombin time (thrombin time; after 2 hours): 90 s
- Thrombin time (thrombin time; after 1 day): 92 s
- Thrombin time (thrombin time; after 2 days): 210 s
- Thrombin time, initial parameter (thrombin time): 35 s
- Solubility in 0.9% isotonic solution of sodium chloride [3]: readily soluble
- Solubility in 95% ethanol [3]: substantially insoluble
- Solubility in chloroform [3]: substantially insoluble
- Solubility in ether [3]: substantially insoluble
- Hygroscopicity [3]: hygroscopic
- Solubility in water [3]: readily soluble
- Efficiency of the therapy (lysis of thrombus) ([4]; rabbits, 400 units/kg i.v., n=7): full lysis
- Efficiency of the therapy (lysis of thrombus) ([4]; rabbits, 600 units/kg i.v.): full lysis
- Lysis duration of the euglobulin fraction ([5]; after 2 hours): 90 min
- Lysis duration of the euglobulin fraction ([5]; after 1 day): 1 min
- Lysis duration of the euglobulin fraction ([5]; after 2 days): 10 min
- Lysis duration of the euglobulin fraction, initial parameter [5]: 70 min
- LD50 (Rabbits): 1834 un./kg
- Toxicity test result (dead/survived, not defined) (Rabbits; 500 un/kg): 0/6
- Toxicity test result (dead/survived, not defined) (Rabbits; 1500 un/kg): 2/4
- Toxicity test result (dead/survived, not defined) (Rabbits; 2000 un/kg): 2/4
- Toxicity test result (dead/survived, not defined) (Rabbits; 2500 un/kg): 6/0
- LD50 (Mice): 5000 un./kg
- Toxicity test result (dead/survived, not defined) (Mice; 2000 un/kg): 0/6
- Toxicity test result (dead/survived, not defined) (Mice; 2500 un/kg): 0/6
- Toxicity test result (dead/survived, not defined) (Mice; 5000 un/kg): 2/4
- Toxicity test result (dead/survived, not defined) (Mice; 6250 un/kg): 6/0
- Toxicity test result (dead/survived, not defined) (Dogs; 500 un/kg): 0/3
- Toxicity test result (dead/survived, not defined) (Dogs; 1000 un/kg): 0/3
- Toxicity test result (dead/survived, not defined) (Dogs; 1500 un/kg): 0/1

B2: Fibrinolysin: native enzyme; thrombolytic preparation administered intravenously (protein, UniProt P00747 20-580; P00747 581-810, looked up)
Plasmin heavy chain A: B1 Plasmin heavy chain A
Plasmin light chain B: B1 Plasmin light chain B
modifications: Plasmin
notes: native enzyme; thrombolytic preparation administered intravenously
- Lysis of a thrombus at the minimal therapeutic dose (experimental thrombosis; 800 units/kg of the bodyweight): does not always cause the lysis of a thrombus
- Duration of the fibrinolytic effect (experimental thrombosis; after administration): limited to one day
- Minimal effective (therapeutical) dose (experimental thrombosis): 800 units/kg
- Bleeding (blood coagulation): bleeding
- Changes in the third phase of blood coagulation (blood coagulation): pathological changes in the third phase of blood coagulation
- Content of fibrinogen (blood coagulation; first hours after administration): down to zero
- Efficiency of the therapy (lysis of thrombus) ([2]; femoral vein, 800 units/kg i.v., n=1): no lysis
- Efficiency of the therapy (lysis of thrombus) ([2]; femoral vein, 1,600 units/kg i.v., n=1): full lysis
- Thrombin time (thrombin time; after 2 hours): 195 s
- Thrombin time (thrombin time; after 1 day): 95 s
- Thrombin time (thrombin time; after 2 days): 97 s
- Thrombin time, initial parameter (thrombin time): 22 s
- Efficiency of the therapy (lysis of thrombus) ([4]; rabbits, 600 units/kg i.v.): no lysis
- Efficiency of the therapy (lysis of thrombus) ([4]; rabbits, 800 units/kg i.v. (Table 1: 2 animals full lysis, 1 animal no lysis)): full lysis; also recorded: no lysis
- Efficiency of the therapy (lysis of thrombus) ([4]; rabbits, 800 units/kg i.v. (Table 1: 2 animals full lysis, 1 animal no lysis), listed as fibrinolysin): no thrombolytic effect in all cases
- Efficiency of the therapy (lysis of thrombus) ([4]; rabbits, 1,200 units/kg i.v.): full lysis
- Efficiency of the therapy (lysis of thrombus) ([4]; rabbits, 2,000 units/kg i.v.): full lysis
- Death of animals ([4]; rabbits, 4,000 units/kg i.v.): death of animals
- Efficiency of the therapy (lysis of thrombus) ([4]; rabbits, 4,000 units/kg i.v.): full lysis
- Lysis duration of the euglobulin fraction ([5]; after 2 hours): 3 min
- Lysis duration of the euglobulin fraction ([5]; after 1 day): 105 min
- Lysis duration of the euglobulin fraction ([5]; after 2 days): 90 min
- Lysis duration of the euglobulin fraction, initial parameter [5]: 38 min

B3: 2: polysaccharide derivative of fibrinolysin from oxidized polyglucin with the molecular mass of 110,000 and the oxidation degree of 20±2% (conjugate, UniProt P00747 20-580; P00747 581-810, looked up)
Plasmin heavy chain A: B1 Plasmin heavy chain A
Plasmin light chain B: B1 Plasmin light chain B
modifications: plasmin conjugated to oxidized polyglucin
- Solubility in 0.9% isotonic solution of sodium chloride [3]: readily soluble
- Solubility in 95% ethanol [3]: substantially insoluble
- Solubility in chloroform [3]: substantially insoluble
- Solubility in ether [3]: substantially insoluble
- Hygroscopicity [3]: hygroscopic
- Solubility in water [3]: readily soluble
- Specific (fibrinolytic) activity [6]: 24 units/mg
- Total activity relative to the initial value [6]: 30%

B4: 1: polysaccharide derivative of fibrinolysin from oxidized polyglucin with the molecular mass of 20,000, reduced with sodium borohydride (conjugate, UniProt P00747 20-580; P00747 581-810, looked up)
Plasmin heavy chain A: B1 Plasmin heavy chain A
Plasmin light chain B: B1 Plasmin light chain B
modifications: plasmin conjugated to oxidized polyglucin, borohydride-reduced
notes: polysaccharide derivative of fibrinolysin from oxidized polyglucin with the molecular mass of 20,000, reduced with sodium borohydride
- Solubility in 0.9% isotonic solution of sodium chloride [3]: soluble
- Solubility in 95% ethanol [3]: substantially insoluble
- Solubility in chloroform [3]: substantially insoluble
- Solubility in ether [3]: substantially insoluble
- Hygroscopicity [3]: hygroscopic
- Solubility in water [3]: soluble
- Specific (fibrinolytic) activity [6]: 21.2 units/mg
- Total activity relative to the initial value [6]: 31.0%
- Total activity ([6]; whole batch): 48200 units
